Test results published in patent US20220064674A1 (MILTENYI BIOTEC B V, published 2022).

Target: T1, CD62L (L-selectin) expressed on cells (human, UniProt P14151 39-372)
T1 construct: whole, on cells; also called HT1080-CD62L
T1 sequence: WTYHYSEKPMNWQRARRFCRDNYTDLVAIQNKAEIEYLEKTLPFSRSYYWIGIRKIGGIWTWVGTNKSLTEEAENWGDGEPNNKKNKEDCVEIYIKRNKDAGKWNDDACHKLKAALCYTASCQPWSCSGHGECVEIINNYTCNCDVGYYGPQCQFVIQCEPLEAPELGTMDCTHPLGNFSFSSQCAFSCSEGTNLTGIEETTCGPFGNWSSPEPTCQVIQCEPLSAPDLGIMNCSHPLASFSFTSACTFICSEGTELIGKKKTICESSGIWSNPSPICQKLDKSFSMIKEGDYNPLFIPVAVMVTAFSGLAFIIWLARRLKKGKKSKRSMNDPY
Assay: competition and binding assay on PBMC, flow cytometry

B1: CD62L specific antibody derived from the same clone (parental antibody) (antibody, V domains shown)
VH: EVKLVESGGGLVKPGGSLKLSCAASGFTFSSYAMSWVRQTPEKRLEWVASISSGGSTYYPDSVKGRFTISRDNARNILYLQMSSLRSEDTAMYYCARDDDGYYDYWGQGTTLTVSS
VL: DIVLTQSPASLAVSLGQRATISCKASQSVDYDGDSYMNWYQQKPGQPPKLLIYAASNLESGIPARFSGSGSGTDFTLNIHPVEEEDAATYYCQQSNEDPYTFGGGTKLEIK
  binding result: binds
